Experimental data from article PMC3906316 (Journal of Medicinal Chemistry, 2013).

Target: bromodomain of CREB (cyclic-AMP response element binding) binding protein (UniProt Q92793-1)
Experiment: AlphaScreen or HTRF
Conditions: both partners purified

Chain of bromodomain of CREB (cyclic-AMP response element binding) binding protein (Q92793 1081-1197): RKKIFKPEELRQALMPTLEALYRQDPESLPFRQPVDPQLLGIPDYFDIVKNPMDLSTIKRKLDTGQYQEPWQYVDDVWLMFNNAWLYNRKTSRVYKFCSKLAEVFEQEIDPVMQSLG

ALREIRRYQKSTELLIRKLK (K(Ac) at peptide position 10 (H3K56); C-terminal K(Biotin)) [H3K56(Ac) peptide]: binds.
